Data from publication PMC8589989.

Key:
His-MBP-ZNF384 [1] = target: T1, His-MBP-ZNF384 (human, UniProt Q8TF68-2 1-516); experiment: BLI; 400 nM protein; seemingly lower affinity than ssDNA; Pull-down: 10 mM Tris pH 7.5, 150 mM KCl, 5 mM MgCl2, 0.25% Tween-20, 3.5 mM DTT, 5% glycerol, 0.1% BSA, 4 C; BLI: 10 mM Tris pH 7.5, 150 mM KCl, 5 mM MgCl2, 0.05% Tween-20, 0.1% BSA, 1 mM DTT, 298 K; settings: protein: recombinant, tags: His6-MBP, 24 bp duplex
T1 sequence: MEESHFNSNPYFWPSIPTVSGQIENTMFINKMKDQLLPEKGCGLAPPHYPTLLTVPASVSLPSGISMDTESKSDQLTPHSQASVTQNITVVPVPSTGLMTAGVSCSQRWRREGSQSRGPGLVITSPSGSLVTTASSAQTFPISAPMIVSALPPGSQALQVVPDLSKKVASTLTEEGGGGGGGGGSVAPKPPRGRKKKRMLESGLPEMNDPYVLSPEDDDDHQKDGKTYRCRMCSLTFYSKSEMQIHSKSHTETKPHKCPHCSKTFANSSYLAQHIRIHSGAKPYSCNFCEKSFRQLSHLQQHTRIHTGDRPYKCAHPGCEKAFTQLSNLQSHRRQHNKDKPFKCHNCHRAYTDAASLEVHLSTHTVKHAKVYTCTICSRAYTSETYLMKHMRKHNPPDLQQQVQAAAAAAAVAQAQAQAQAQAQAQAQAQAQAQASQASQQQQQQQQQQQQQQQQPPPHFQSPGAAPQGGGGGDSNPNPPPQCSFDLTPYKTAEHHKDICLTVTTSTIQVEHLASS

His-MBP-ZNF384 [2] = target: T1, His-MBP-ZNF384; experiment: BLI; 400 nM protein; Pull-down: 10 mM Tris pH 7.5, 150 mM KCl, 5 mM MgCl2, 0.25% Tween-20, 3.5 mM DTT, 5% glycerol, 0.1% BSA, 4 C; BLI: 10 mM Tris pH 7.5, 150 mM KCl, 5 mM MgCl2, 0.05% Tween-20, 0.1% BSA, 1 mM DTT, 298 K; settings: protein: recombinant; tags: His6-MBP; label: 5' biotin; single strand
His-Ku70/Ku80 = His-Ku70/Ku80 (UniProt P12956;P13010 1-609;1-732); experiment: pull-down; 100 fmol Ku, without ZNF384; Pull-down: 10 mM Tris pH 7.5, 150 mM KCl, 5 mM MgCl2, 0.25% Tween-20, 3.5 mM DTT, 5% glycerol, 0.1% BSA, 4 C; BLI: 10 mM Tris pH 7.5, 150 mM KCl, 5 mM MgCl2, 0.05% Tween-20, 0.1% BSA, 1 mM DTT, 298 K; settings: protein: recombinant; tags: His; copies: 1;1; label: 5' biotin on strand 1; 3' overhang 20 nt (strand 1, T-rich), 24 bp duplex
Sequence of His-Ku70/Ku80 (P12956 whole entry, chain 1 of 2): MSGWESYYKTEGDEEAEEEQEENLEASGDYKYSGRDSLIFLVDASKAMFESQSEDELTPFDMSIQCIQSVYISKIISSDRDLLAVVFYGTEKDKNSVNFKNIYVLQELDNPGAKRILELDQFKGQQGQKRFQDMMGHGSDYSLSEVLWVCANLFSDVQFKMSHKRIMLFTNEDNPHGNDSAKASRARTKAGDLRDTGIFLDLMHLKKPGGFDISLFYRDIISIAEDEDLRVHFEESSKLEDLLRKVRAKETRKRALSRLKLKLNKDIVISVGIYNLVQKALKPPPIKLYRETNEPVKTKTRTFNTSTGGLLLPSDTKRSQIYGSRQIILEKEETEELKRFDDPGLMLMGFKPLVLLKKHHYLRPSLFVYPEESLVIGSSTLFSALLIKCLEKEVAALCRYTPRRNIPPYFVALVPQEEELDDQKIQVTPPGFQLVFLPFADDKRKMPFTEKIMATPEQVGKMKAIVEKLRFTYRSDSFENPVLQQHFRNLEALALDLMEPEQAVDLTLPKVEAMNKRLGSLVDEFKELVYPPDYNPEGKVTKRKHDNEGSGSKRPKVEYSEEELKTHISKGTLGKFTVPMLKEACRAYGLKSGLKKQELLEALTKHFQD
Sequence of His-Ku70/Ku80 (P13010 whole entry, chain 2 of 2): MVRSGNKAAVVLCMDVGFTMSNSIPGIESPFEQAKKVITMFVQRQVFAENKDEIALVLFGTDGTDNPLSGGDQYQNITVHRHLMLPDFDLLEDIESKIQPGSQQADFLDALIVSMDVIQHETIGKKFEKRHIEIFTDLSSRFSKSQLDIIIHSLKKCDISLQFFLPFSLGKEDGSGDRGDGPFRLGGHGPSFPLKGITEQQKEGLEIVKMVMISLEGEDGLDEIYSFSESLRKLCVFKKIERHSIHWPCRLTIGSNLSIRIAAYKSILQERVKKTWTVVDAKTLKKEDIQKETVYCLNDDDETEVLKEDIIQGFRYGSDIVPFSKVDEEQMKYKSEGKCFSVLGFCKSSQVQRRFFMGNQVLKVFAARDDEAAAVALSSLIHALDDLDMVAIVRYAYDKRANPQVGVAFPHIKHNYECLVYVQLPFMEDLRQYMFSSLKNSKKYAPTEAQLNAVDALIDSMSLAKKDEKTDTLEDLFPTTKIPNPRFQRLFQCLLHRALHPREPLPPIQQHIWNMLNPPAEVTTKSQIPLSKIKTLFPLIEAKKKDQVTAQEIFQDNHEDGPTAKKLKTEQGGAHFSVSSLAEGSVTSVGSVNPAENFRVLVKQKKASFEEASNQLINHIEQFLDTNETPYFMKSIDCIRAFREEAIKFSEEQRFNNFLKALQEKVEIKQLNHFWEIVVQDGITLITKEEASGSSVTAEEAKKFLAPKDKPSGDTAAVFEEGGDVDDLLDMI

[3] = target: His-Ku70/Ku80;His-MBP-ZNF384 (human?;human, UniProt P12956;P13010;Q8TF68-2 1-609;1-732;1-516, |); experiment: pull-down; Ku binding enhanced by increasing ZNF384; Pull-down: 10 mM Tris pH 7.5, 150 mM KCl, 5 mM MgCl2, 0.25% Tween-20, 3.5 mM DTT, 5% glycerol, 0.1% BSA, 4 C; BLI: 10 mM Tris pH 7.5, 150 mM KCl, 5 mM MgCl2, 0.05% Tween-20, 0.1% BSA, 1 mM DTT, 298 K; settings: protein: recombinant;recombinant; tags: His;His6-MBP; copies: 1;1;1; label: 5' biotin on strand 1; 3' overhang 20 nt (strand 1, T-rich), 24 bp duplex
Sequence of His-Ku70/Ku80;His-MBP-ZNF384 (P12956 whole entry, chain 1 of 2): as the sequence (P12956 whole entry, chain 1 of 2) above
Sequence of His-Ku70/Ku80;His-MBP-ZNF384 (P13010 whole entry, chain 2 of 2): as the sequence (P13010 whole entry, chain 2 of 2) above

His-MBP-ZNF384 [4] = target: T1, His-MBP-ZNF384; experiment: pull-down; did not show RNA binding; Pull-down: 10 mM Tris pH 7.5, 150 mM KCl, 5 mM MgCl2, 0.25% Tween-20, 3.5 mM DTT, 5% glycerol, 0.1% BSA, 4 C; BLI: 10 mM Tris pH 7.5, 150 mM KCl, 5 mM MgCl2, 0.05% Tween-20, 0.1% BSA, 1 mM DTT, 298 K; settings: protein: recombinant; tags: His6-MBP; label: 5' biotin; single strand

B1: 5' overhang DNA (dsDNA)
DNA 1: TTCTTTTTTTTTCTTTTTCTGCGATCATGACGTAGACGATAGCG
DNA 2: CGCTATCGTCTACGTCATGATCGC
binding result (His-MBP-ZNF384 [1]; label: 5' biotin on strand 2, 5' overhang 20 nt (strand 1, T-rich)): binds

GCGATCATGACGTAGACGATAGCGTTCTTTTTTTTTCTTTTTCT (ssDNA) [ssDNA T-strand (ssDNA(T))]
binding result (His-MBP-ZNF384 [2]): binds

B2: 3' overhang DNA (dsDNA)
DNA 1: GCGATCATGACGTAGACGATAGCGTTCTTTTTTTTTCTTTTTCT
DNA 2: CGCTATCGTCTACGTCATGATCGC
binding result (His-Ku70/Ku80): binds | binding result [3]: binds | binding result (His-MBP-ZNF384 [1]; label: 5' biotin on strand 1, 3' overhang 20 nt (strand 1, T-rich)): binds

GCGAUCAUGACGUAGACGAUAGCGUUCUUUUUUUUUCUUUUUCU (ssRNA) [RNA U-strand]
binding result (His-MBP-ZNF384 [4]): no binding
